Laboratory results published in patent US20240368285A1 (HEFEI TG IMMUNOPHARMA, published 2024).

Tests used:
[1] = molecular target: T1, MICA on human tumor cells (A-375, A549, HCT-15, MDA-MB-231) (human, UniProt Q29983 24-383); assay: flow cytometry competition on HCT-15 cells; competitor: Biotin-h5A1002, detected with Alexa-647 streptavidin; % binding ratio of Biotin-h5A1002
T1 construct: whole, on cells
T1 sequence (looked up): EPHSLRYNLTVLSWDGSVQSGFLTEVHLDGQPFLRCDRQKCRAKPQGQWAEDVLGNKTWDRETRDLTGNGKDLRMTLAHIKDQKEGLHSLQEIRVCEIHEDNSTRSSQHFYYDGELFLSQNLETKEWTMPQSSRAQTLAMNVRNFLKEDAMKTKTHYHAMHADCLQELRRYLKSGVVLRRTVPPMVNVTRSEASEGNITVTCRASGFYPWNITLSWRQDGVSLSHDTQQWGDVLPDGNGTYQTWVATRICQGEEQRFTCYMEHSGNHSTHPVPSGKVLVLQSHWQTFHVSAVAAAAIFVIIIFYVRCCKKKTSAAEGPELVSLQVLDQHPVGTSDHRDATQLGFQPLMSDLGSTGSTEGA
Method: HCT-15 cells were diluted to a density of 2×10⁶/mL with PBS and added into a 1.5 ml EP tube in a volume of 100 l/tube. 10 l/tube of goat serum was added into the EP tube, and blocking was conducted at 4° C. for 30 min. […] The tube was incubated at 4° C. for 30 min. A biotin-labeled affinity maturation antibody Biotin-h5A1002 (having a heavy chain sequence as set forth in SEQ ID NO: 13 and a light chain sequence as set forth in SEQ ID NO: 14) was added. The tube was incubated at 4° C. for 30 min. 1 mL of PBS was added into the EP tube, and centrifugation was conducted 4° C. at a rate of 3,500 rpm for 5 min. The supernatant was removed. The EP tube was washed once with the PBS, and the supernatant was removed after centrifugation. The cells were resuspended with PBS in a volume of 100 l/tube. An Alexa-647 labeled Streptavidin secondary antibody (purchased from Biolegend) was added into the tube in a volume of 1 l/tube, and the tube was incubated in the dark at 4° C. for 30 min. The tube was washed twice with PBS, and the supernatant was removed after centrifugation. The cells were resuspended with the PBS in a volume of 200 μl/tube, and detection was conducted by a flow cytometer.

[2] = molecular target: T2, MICA002α3-Fc (human); assay: ELISA on coated MICA*002 α3-Fc (1 µg/ml), HRP anti-human Fab secondary, OD450
T2 construct: Produced in the Applicant's laboratory; also called MICA*002-Fc; domain α3 of MICA-002 Fc fusion protein
Method: After the antibodies were added, signal intensity was used for judging the binding characteristics of the antibodies and MICA and MICB.
The fusion proteins (produced in the Applicant's laboratory; an amino acid sequence of MICA002α3-Fc is as set forth in SEQ ID NO: 22; an amino acid sequence of MICA005α3-Fc is as set forth in SEQ ID NO: 24; an amino acid sequence of MICA008α3-Fc is as set forth in SEQ ID NO: 25; an amino acid sequence of MICA004α3-Fc is as set forth in SEQ ID NO: 23; an amino acid sequence of MICB001α3-Fc is as set forth in SEQ ID NO: 26; and an amino acid sequence of MICB005α3-Fc is as set forth in SEQ ID NO: 27) were diluted to a concentration of 1 μg/ml with PBS and then added into a 96-well plate in a volume of 100 μl/well. The plate was placed at 4° C. overnight. The PBS in the 96-well plate was removed by sucking. After the plate was washed with PBST (that is, PBS having a pH value of 7.2 included 0.1 volume % of Tween 20) for 6 times, PBS containing 10% of BSA was added in a volume of 200 μl/well. The plate was incubated at 37° C. for 2 hours for blocking. The blocking solution was removed. […]

[3] = molecular target: T3, MICA005α3-Fc (human); assay: ELISA on coated MICA*005 α3-Fc (1 µg/ml), HRP anti-human Fab secondary, OD450
T3 construct: also called MICA*005-Fc; domain α3 of MICA-005 Fc fusion protein
T3 sequence (chain, as listed by the source limits assumed): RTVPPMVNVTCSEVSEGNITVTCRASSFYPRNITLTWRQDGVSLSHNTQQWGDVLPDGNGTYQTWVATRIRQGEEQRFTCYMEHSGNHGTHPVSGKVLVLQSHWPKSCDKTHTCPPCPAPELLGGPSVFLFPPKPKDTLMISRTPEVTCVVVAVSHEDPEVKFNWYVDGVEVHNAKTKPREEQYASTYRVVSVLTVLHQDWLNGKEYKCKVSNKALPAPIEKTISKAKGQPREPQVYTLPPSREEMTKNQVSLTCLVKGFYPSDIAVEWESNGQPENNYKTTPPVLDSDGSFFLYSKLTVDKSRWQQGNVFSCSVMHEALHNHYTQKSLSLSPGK

T2 sequence (chain, as listed by the source limits assumed): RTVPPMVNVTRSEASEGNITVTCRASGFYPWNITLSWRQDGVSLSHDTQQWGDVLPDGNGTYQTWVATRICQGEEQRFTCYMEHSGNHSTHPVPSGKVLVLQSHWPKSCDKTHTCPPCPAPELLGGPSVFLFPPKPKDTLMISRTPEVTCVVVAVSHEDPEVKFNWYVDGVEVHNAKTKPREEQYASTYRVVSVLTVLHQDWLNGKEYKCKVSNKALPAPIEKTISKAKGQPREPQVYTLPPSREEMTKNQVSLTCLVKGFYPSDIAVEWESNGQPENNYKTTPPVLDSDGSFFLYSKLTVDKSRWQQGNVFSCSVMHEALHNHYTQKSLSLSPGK

B1: affinity maturation antibody h5A1002 (antibody, V domains shown)
VH: QVQLQESGPGLVKPSETLSLTCTVSGFSLTTYGGHWIRQPPGKGLEWIGMIWTDGWTDYNAAFISRVTISVDTSKNQFSLKLSSVTAADTAVYYCARKGHGYYYAMDYWGQGTLVTVSS
VL: EIVLTQSPGTLSLSPGERATLSCTASSSVSSSYLHWYQQKPGQAPRLLIYSTSNLISGIPDRFSGSGSGTDFTLTISRLEPEDFAVYYCHQYHRSPFTFGQGTKLEIKR
notes: Human IgG1, kappa; also called h5A1002-hIgG1
IC50 (read off the curve) [1]: ~1 µg/mL | EC50 (read off the curve) [2]: ~0.06 µg/mL | EC50 (read off the curve) [3]: ~0.04 µg/mL
